Results: the DeepSol protein solubility set

Experiment: soluble on expression in E. coli; label from the status in PepcDB or PDB records
With “MGSDKIHHHHHHMILKTNLFGHTYQFKSITDVLAKANEEKSGDRLAGVAAESAEERVAAKVVLSKMTLGDLRNNPVVPYETDEVTRIIQDQVNDRIHDSIKNWTVEELREWILDHKTTDADIKRVARGLTSEIIAAVTKLMSNLDLIYGAKKIRVIAHANTTIGLPGTFSARLQPNHPTDDPDGILASLMEGLTYGIGDAVIGLNPVDDSTDSVVRLLNKFEEFRSKWDVPTQTCVLAHVKTQMEAMRRGAPTGLVFQSIAGSEKGNTAFGFDGATIEEARQLALQSGAATGPNVMYFETGQGSELSSDAHFGVDQVTMEARCYGFAKKFDPFLVNTVVGFIGPEYLYDSKQVIRAGLEDHFMGKLTGISMGCDVCYTNHMKADQNDVENLSVLLTAAGCNFIMGIPHGDDVMLNYQTTGYHETATLRELFGLKPIKEFDQWMEKMGFSENGKLTSRAGDASIFLK” the “soluble on expression in E. coli” value was “not soluble”. For “MGSDKIHHHHHHMKKLLNTLYLTQEDFYVTKEGDNIVIKQEGKVLKRFPFRIIDGIVCFSYLGVSSALVKLCTENQINLSFHTPQGRFCGRYIGSTNGNVLLRREHYRLSDREESLEYAKRFILAKISNSRKYLLRFKRDHRQQIDTKLFEAVNDELIWALEMVQAADNKDSLRGIEGQAANQYFRIFNDLVLTDKKTFYFQGRSKRPPLDCVNALLSFGYSLLTFECQSALEAVGLDSYVGFFHTDRPGRASLALDLVEEFRSYIVDRFVFSLINKGQLQKKHFEVKENGSILLTENGRAIFIDLWQKRKHTEVEHPFTKEKVKLMLLPYVQAQLLAKAIRGDLESYPPFMV”, the “soluble on expression in E. coli” value was “not soluble”. With “MAHHHHHHMYLHVMKVACTPDERHCENSVNPSSSSTLPSATTSSSCPVEHGVPDEESRFTRLYEAAVENESALRVGNYTRRLLFDEFCATSDATRQASQPTCRMLRQRHPALRSLSLSVEGMHSAGADRTSATQLPADSTMSAAESLQAYLSPALSAWRCASQEPFASSAQVAAAAPLPTSAVASDVRPRSPLPLHIDESDAPVDEGAHGEGLEALYMDVFDQEGPANNHEVAVNAAYTREREAADRAALLSAQQATMAGCPCGFTARGSTPSADVSLSNASSLLPEEDDISLVLQPVLGGVAQRRGRGIRVHLESEPSVTTSSSMVDASFLQAGRETTTLTCAVCELSGVVGDPHRTCIDAVELQEEDELHPCGTCGALVHSYCACPGTTADTHYCCNPCCPGGGTV” the “soluble on expression in E. coli” value was “not soluble”. For “MGSDKIHHHHHHMAFRGWKKLPIRIETGEMVEAIAPVIVSASRATDIPAFHAEWFMTRLRAGYVQWCNPFNARQTQYVSFRKTRAVIFWSKNPAPLLPHLSELDAIGINYSFQFTLNDYEAEGLEPYVLPLAKRIETFRRLASHIGPERVVWRFDPLVLTGRLTADMLLERIGRLAEALGGQTRKLVISFADIECYRAVRLRLSRMGAGAREFAPEEMDEFAARLVERNKDWGLELSACAEDSELAGIAKSRCIDGHVLASCFGDDAELMEFLGGSTLFPGDAPVSVALKHQGQRKACGCIVSKDIGVYGTCQHGCRYCYACR”, the “soluble on expression in E. coli” value was “not soluble”. For “MSLETVRLQRELIEAQRQTYNEMRTYFTVNGVEGVIGAVFDEGVITLRVPSEVLFAPGAVELAPGADRVLATLKDLFIRRREQNINIKGFTDDVQPSANARFKDNWEVSALRSVNVLRYFLGAGIEPARLTATGLGELDPLFPNTSDENRARNRRVEFVLERRVVREGHHHHHH”, the “soluble on expression in E. coli” value was “soluble”. With “SLVTVSDVKQYHFCKAIPWINYVMGYREPSTFSMEEGKKISYEEVVKSLNLTTPVKYEVCLSYNGLSGCIDILAGDRKYTVVEVKAFKRGNFSHFRYQLLAYAYLVRKRLGIVERAILVMEGKKVLEIEPTEEHYRYIENVVKKIEEIVNSEKLPAVNVEKCDFCQYRRICPVSVWS” the “soluble on expression in E. coli” value was “not soluble”. With “MTSAHDIDLQQILTDRLTGASPDLLRELLTMFIHTLMGAEADALCGAGYGQRSEERTNSRNGYRHRDFDTRVGTLDVAIPKLRSGSYFPDWLLERRKRAEKALTTVVATCYLLGVSTRRMDRLVDTLGITGLSKSQVSVMAKDLDTQVEAFRSRPLDTGPYTFVAADALVLKVRENGRVVNVHTLVAVGVNAEGYREILGVDVTSSEDGAGWLAFFRSLVARGLGGVRLVTSDAHAGLVAAIGGTLPGASWQRCRTHYSTNLMAVTPKASWPWVKTLLHSVYDQPDADSVHAQYDRIIGALSEKLPRVADHLDAARPDLLAFTAFPKQIWKQIWSNNPQERLNKEIRRRTDVVGIFPDRTALIRLVGAVLAEQHDEWIEGRRYLGLDVLARSRNDKPTDSSTESTEEVTPALTA” the “soluble on expression in E. coli” value was “not soluble”. In the case of “MSDDDSSHDLPAANLQQLRLPDSASLRPAFSTHRPRILILYGSLRTVSYSRLLAEEARRLLEFFGAEVKVFDPSGLPLPDAAPVSHPKVQELRELSIWSEGQVWVSPERHGAMTGIMKAQIDWIPLSTGSIRPTQGKTLAVMQVSGGSQSFNAVNQMRILGRWMRMITIPNQSSVAKAFQEFDANGRMKPSSYYDRVVDVMEELVKFTLLTRDCSAYLTDRYSERKESAAELEHRVTLKSVHHHHHH”, the “soluble on expression in E. coli” value was “soluble”. For “MVWDVETAKRFLEVIRNETIYYPVLIALHTGMRAGEIVSLKWYDVNFEARIISVVKSVRNNRGLKTSDVKTKTSKRSVYINDVLFSELKNLYETIKPKPDDFVCPRLPTGNLTVGYLSKRFKLLVKRYNFPVIRFHDLRHTFATLMLSLGVNTKIVAEILGHSDIKLTADTYSHVLPTMQESAMKEFSKLWKLEHHHHHH”, the “soluble on expression in E. coli” value was “soluble”. With “MASGILVNVKEEVTCPICLELLTQPLSLDCGHSFCQACLTANHKKSMLDKGESSCPVCRISYQPENIRPNRHVANIVEKLREVKLSPEGQKVDHCARHGEKLLLFCQEDGKVICWLCERSQEHRGHHTFLTEEVAREYQVKLQAALEMLRQKQQEAEELEADIREEKASWKTQIQYDKTNVLADFEQLRDILDWEESNELQNLEKEEEDILKSLTNSETEMVQQTQSLRELISDLEHRLQGSVMELLQGVDGVIKRTENVTLKKPETFPKNQRRVFRAPDLKGMLEVFRELTDVRRYWGKEKSHYHKPPCGLSLLLSLSFRILCSLLGSCFKIYDSPSKTHITYPSL” the “soluble on expression in E. coli” value was “soluble”. With “MSLNIQQQVNEMFSGMINVTSPGAYKTATRGVITGGSVVLRNRISTANLISITPPSAKGGCGGINLYSGSFSFINGEEFVALMRNVASNAAGIVSGFAFELALDAMDAQTGGVIRNLANKIQALNQMFSNSCQLASGLVTNAKKAYEESTDFKSAMTAFGSNVSSDFFTAKSTKEDSPANRIAASGKAVQCENTGNVLWCAMMKSGLQSQILFGSDENAEFIMSMVGSYNVSLTNDASGGKNFAAHPMPKLITGEGLKILVEGSTNLDVKVYQCDQDDPDCSEPNIRTLTSFKGLETRILEDLQNNGILERFANGTATAADGNRIAYLASSRVGVNLMKITQKAGAQSGYDYLNQFAKKIAADASMSLIYQLLGHTEKGLTSLNMADAGKVIEDLRATKGELMDEYRSYIEDAMQGKDADGQAEKMLQMAPVFDSGTLPQGTINDNAGAEGHHHHHH” the “soluble on expression in E. coli” value was “not soluble”. With “MSLVRQEPLRPDQPLEMGFEYRSAVRTVRTDSTGLIIPAPTARFSLNESPWRSCKGGMMAGMSSLVRIVNAGVPGSQDRVDVVLRDGVVASVGPAGTVSASDGTMQTKAHTTSLAYATNAIASGGVSIPTSASAPADETTIDADGLWVIPGLWDCHTHFTQWVKTLGRLDLINARSAAEAMDMLRRHLDERRAADTLDPDAFVVGMRFRHSLWADDEQPTLAAIDAVTGEQPVALSSADMHCGWVNSAAARRLGVHVDESGLVGELEWFNAYTAFDKAPGAAEETDRLLREAEQDAASKGVVGIRDYEMAENIDTWINRFAAGINGLRVDAGVYPERLRAAIDAGWHTGKELPGSAGLGHVGAMKLISDGSLNTRSAYCSTPYSGIEPLTYGTLSYTPQQIEDYMRLATEHGFDIACHAIGDEANTIALNAVAATHAHGSIEHAQMLKPVDIPRFAELGLTASIQPQHAMDDRDVITRFWANPAGIPYPFRALHDAGTTLRMGSDAPVAPLDPWLAISAAVLGTESSDREPFQPEQCLDVHTSLAASTATGRDRLASGDPADVVLLDADPYAADTPEAMRAMPQHVVMTLLCGERTYEGHHHHHH” the “soluble on expression in E. coli” value was “not soluble”. In the case of “MHYHGSCHCGTIRFDVEGELTGAMSCNCSICRRKGALLWFVPRDHLRLATPDEQIATYTFNRHLIKHRFCPTCGIHTHGEGVDQQGRAMAAINIRCLDDVDLDAVAVHQYDGRAALEHHHHHH”, the “soluble on expression in E. coli” value was “soluble”. For “GPGSMEGPPPVCFRQCSFTYGAEPSTLHISQQCFSDYVWILVTEDDTCVPGVVLRFDPHDAGPCVGCESLNNLPSLPCEYLLGVRDHALTNILSSAIAHAIQSVGEQRPLLLCVSAAKTAKRLQTTEERMSFVRMVREKVVALAKGETC”, the “soluble on expression in E. coli” value was “not soluble”. With “MDRIVEIEKYSFDETYETSLRPSNFDGYIGQESIKKNLNVFIAAAKKRNECLDHILFSGPAGLGKTTLANIISYEMSANIKTTAAPMIEKSGDLAAILTNLSEGDILFIDEIHRLSPAIEEVLYPAMEDYRLDIIIGSGPAAQTIKIDLPKFTLIGATTRAGMLSNPLRDRFGMQFRLEFYKDSELALILQKAALKLNKTCEEKAALEIAKRSRSTPRIALRLLKRVRDFADVNDEEIITEKRANEALNSLGVNELGFDAMDLRYLELLTAAKQKPIGLASIAAALSEDENTIEDVIEPYLLANGYIERTAKGRIASAKSYSALKLNYEKTLFEE” the “soluble on expression in E. coli” value was “not soluble”. With “MGGSHHHHHHGMASMTGGQQMGRDLYDDDDKDRWGSELEISMEQVSASIGNFTVDLFNKLNETNRDKNIFFSPWSISSALALTYLAAKGSTAREMAEVLHFEQAENIHSGFKELLTAFNKPRNNYSLRSANRIYVEKTYALLPTYLQLSKKYYKAEPQKVNFKTAPEQSRKEINTWVEKQTESKIKNLLSSDDVKATTRLILVNAIYFKAEWEVKFQAEKTSIQPFRLSKNKSKPVKMMYMRDTFPVLIMEKMNFKMIELPYVKRELSMFILLPDDIKDGTTGLEQLERELTYERLSEWADSKMMTETLVDLHLPKFSLEDRIDLRDTLRNMGMTTAFTTNADFRGMTDKKDLAISKVIHQSFVAVDEKGTEAAAATAVIISFTTSVINHVLKFKVDHPFHFFIRHNKSKTILFFGRFCCPVE” the “soluble on expression in E. coli” value was “soluble”. In the case of “MKSLESMEQFQQLKNEENVVFMFSAEWCPDCRFVDPFMPEVEEKYSDFSFYYVDRDEFIDLCVKLDVFGIPSFVAYNKGEETGRYVNKDRKTQEQIEEFIEGLK”, the “soluble on expression in E. coli” value was “not soluble”. For “MGSDKIHHHHHHMEITKRIEELREEMVESLKKFISINSVNPAFGGPGEKEKADWLEGLLRDFGFEVDRCDVRDDRGIWRSNIVAKIPGKNREKTLWIVTHIDTVPPGDLSLWETDPFVPVVKDGKVYGRGAEDNGGSMIASIYAGKALIDLGITPEYNFGLALVADEEAGSEYGIQYLIEKGLFSPEDMFLVPDAGNEKGDFIEIAEKSILWFKVMVNGKQGHASRPQTTENALRKGAHLITEIDEALHRKYSDRDELFDEPLSTFEPTRAEKTVDNVNTVPGRFVFYFDCRVLPRYNLDEVLSIVKSILDGRGAELEVVVKQPAPEPTPPDSELVVKLSNVLRSLRGLEAKVGGIGGGTCAAFFRKKGWPAVVWSTIDETAHQPNEYRRISHMVEDAKVFALLGTER”, the “soluble on expression in E. coli” value was “not soluble”. For “MYLTKEEEQILNGEAGETLRQAIQILVALGDIYGADRLIPIKSAQIAGVSYKTIGDAGLEWISDLEGQVKVPAILNPAGMDLEDWERLRISPEFAEKQKEIVQAYKKLGIRCECTCTPYTLEGFSVSYGDHLAWSESSAISYANSVIGARTNREGGPSALSAALLGKTANYGFHLDKNRVPEVSVSVECSLKESDYGALGYVAGKLIGNRVPIFQLRSKPEKDELKSLGAAMAASGAVALYHVKGVTPEACRMDFEEPEEKIIIERSQLDEVYESKGKEPELITIGCPHCSAAELKKAAELLKGKTVSKETWIFTSRELAERYPEYIRTIEESGAKVVCDTCMVVSPATNSYSCVMVNSGKAFAYVPGMCGAQSVYGNMEACINKATGGKERKAGDSHLEHHHHHH”, the “soluble on expression in E. coli” value was “not soluble”. With “KNCCVYDMATNTLVDAAPYGERSSDYQLATLFHNPGNNNEYLLSQVIEVLDDICQSKEIASETKTKAHWLLSYEPRLPDGDKVKRLLSILEQTLEAFSK” the “soluble on expression in E. coli” value was “not soluble”.
